Laboratory results published in IntAct's records for PubMed 25772236.

B1: E1B 55 kDa protein (Human adenovirus C serotype 5 (HAdV-5)), P03243-1 (parent)
chain: MERRNPSERGVPAGFSGHASVESGCETQESPATVVFRPPGDNTDGGAAAAAGGSQAAAAGAEPMEPESRPGPSGMNVVQVAELYPELRRILTITEDGQGLKGVKRERGACEATEEARNLAFSLMTRHRPECITFQQIKDNCANELDLLAQKYSIEQLTTYWLQPGDDFEEAIRVYAKVALRPDCKYKISKLVNIRNCCYISGNGAEVEIDTEDRVAFRCSMINMWPGVLGMDGVVIMNVRFTGPNFSGTVFLANTNLILHGVSFYGFNNTCVEAWTDVRVRGCAFYCCWKGVVCRPKSRASIKKCLFERCTLGILSEGNSRVRHNVASDCGCFMLVKSVAVIKHNMVCGNCEDRASQMLTCSDGNCHLLKTIHVASHSRKAWPVFEHNILTRCSLHLGNRRGVFLPYQCNLSHTKILLEPESMSKVNLNGVFDMTMKIWKVLRYDETRTRCRPCECGGKHIRNQPVMLDVTEELRPDHLVLACTRAEFGSSDEDTD
B2: E1B 55 kDa protein (Human adenovirus C serotype 5 (HAdV-5)), P03243-1 (parent)
chain: B1 chain
partner: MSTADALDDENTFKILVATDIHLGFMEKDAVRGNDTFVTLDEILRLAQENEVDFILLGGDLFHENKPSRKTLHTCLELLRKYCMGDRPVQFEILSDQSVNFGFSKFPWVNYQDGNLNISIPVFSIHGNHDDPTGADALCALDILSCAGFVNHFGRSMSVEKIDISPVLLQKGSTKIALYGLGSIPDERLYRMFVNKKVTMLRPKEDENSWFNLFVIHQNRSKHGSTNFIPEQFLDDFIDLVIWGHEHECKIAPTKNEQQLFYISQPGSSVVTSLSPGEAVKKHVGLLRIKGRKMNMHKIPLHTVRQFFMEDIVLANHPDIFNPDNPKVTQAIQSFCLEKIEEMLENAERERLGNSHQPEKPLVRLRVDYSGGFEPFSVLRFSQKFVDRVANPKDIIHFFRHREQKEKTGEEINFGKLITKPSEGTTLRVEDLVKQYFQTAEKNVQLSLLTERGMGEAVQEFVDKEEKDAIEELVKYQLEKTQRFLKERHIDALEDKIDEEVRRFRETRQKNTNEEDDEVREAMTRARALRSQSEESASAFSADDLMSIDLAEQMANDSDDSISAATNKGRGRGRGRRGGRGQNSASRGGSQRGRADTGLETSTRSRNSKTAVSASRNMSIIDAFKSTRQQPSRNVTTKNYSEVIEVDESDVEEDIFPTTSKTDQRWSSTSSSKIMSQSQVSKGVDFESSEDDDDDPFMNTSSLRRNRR

Variants of: B1
Conditions: with PML

Row | Variant | effect of a mutation on the interaction
1 | K104R | decreasing interaction strength
2 | R443A | decreasing interaction strength

Variants of: B1
Conditions: with PML
Remark: another data set of the same source

Row | Variant | effect of a mutation on the interaction
3 | R448A;T449A;R450A | disrupting interaction strength

Variants of: B1
Conditions: with DAXX

Row | Variant | effect of a mutation on the interaction
4 | R443A | decreasing interaction strength

Variants of: B2
Conditions: with mre11_human MRE11, P49959

Row | Variant | effect of a mutation on the interaction
5 | K104R | decreasing interaction strength
